Results reported in patent US20120156193A1.

Target: A beta 1-40 oligomer (synthetic A beta1-40, HCl form, 0.1 mg/ml in PBS, incubated at 37 degrees C for one hour) (UniProt P05067)
Assay: SPR, Biacore 3000, A beta oligomer on CM5 chip, antibody as analyte

Question: How did the Kd turn out when “Anti-A beta antibody 6E10 (Covance Immuno-Technologies)” was run?
Answer: 2.91 nM

Question: What about the koff of the same substance?
Answer: 0.000168 s⁻¹

Question: What about the kon of the same substance?
Answer: 57800 M⁻¹ s⁻¹
